Test results taken from the supplement of paper PMC10126150.
± gives the standard deviation of the averaged measurements.

System: ATP
Experiment: switch fluorescence ratio, 500 uM ATP over buffer (Cy3 cluster intensity, sum of 5 cycles each) (fold (ratio)); higher = stronger signal-on switching upon ATP binding; sequences stand for … in TCGTCGGCAGCGTCAGATGTGTATAAGAGACAGTTTTTTTTTTTTTTTTTTTTTTTTT…TC
Settings: aptamer strand: ATP DNA aptamer (quencher-CACCTGGGGGAGTATTGCGGAGGAAGG + anchor), 100 nM annealed; ATP concentration: 500 uM
Summary of the method: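 The quencher-labelled ATP aptamer, at 100 nM, was annealed to Cy3-labelled switching-strand clusters on a modified Illumina MiSeq flow-cell. The clusters were imaged in selection buffer, then after 15 min with 500 uM ATP at 22 °C, and this buffer/ATP cycle ran five times with NaOH stripping and re-annealing between runs. Per-cluster fluorescence ratios, summed target-cycle over summed buffer-cycle Cy3 intensity, were averaged per switch-domain sequence. Clusters outside 100-1000 RFU were excluded.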
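Further: ATP exposure 15 min at 22 °C before imaging.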

Sequence | switch fluorescence ratio
AACGGTACGG | 1.03 ± 0.045
AACGGTATTC | 1.07 ± 0.043
AACGGTTTCC | 1.02 ± 0.038
AACGTACAGG | 1.65 ± 0.15
AACGTACTGG | 1.52 ± 0.095
AACGTAGGAC | 1.1 ± 0.014
AACGTTCGCG | 1.03 ± 0.032
AACGTTGGGG | 0.967 ± 0.017
AACGTTTGCG | 0.986 ± 0.017
AACGTTTGTT | 1.14 ± 0.23
AACTAGGAGG | 0.983 ± 0.012
AACTAGGATA | 1.01 ± 0.02
AACTATTATG | 1.003 ± 0.01
AACTATTGAA | 1.003 ± 0.0077
AACTATTGCG | 0.988 ± 0.019
AACTATTGTA | 1.01 ± 0.022
AACTATTTGT | 0.978 ± 0.015
AACTGAGTAG | 1.01 ± 0.015
AACTGTTCTG | 1.01 ± 0.014
AACTGTTGGT | 0.978 ± 0.025
AACTTAAATT | 1.01 ± 0.021
AACTTATGTC | 0.9738 ± 0.0069
AACTTCAGGC | 1.05 ± 0.041

Sequence | switch fluorescence ratio
AACTTCCGCA | 1.29 ± 0.038
AACTTGAGAA | 1.01 ± 0.012
AACTTGATAT | 0.9835 ± 0.0019
AACTTGGACC | 1.05 ± 0.035
AACTTTAGTA | 1 ± 0.016
AACTTTTATT | 1.01 ± 0.015
AACTTTTCTA | 0.976 ± 0.017
AACTTTTTTT | 0.98236 ± 0.00064
AAGAAAAATT | 0.9725 ± 0.0048
AAGAAACGGG | 1.025 ± 0.008
AAGAAAGACT | 1.02 ± 0.013
AAGAAATTAA | 1.01 ± 0.045
AAGAAATTTT | 0.984 ± 0.012
AAGAAGAGGA | 1 ± 0.011
AAGAAGATTT | 1 ± 0.012
AAGAATGACT | 0.977 ± 0.014
AAGAATTGTG | 0.992 ± 0.032
AAGAATTTTG | 0.999 ± 0.027
AAGACACAGA | 1.06 ± 0.035
AAGACCGGCA | 1.01 ± 0.038
AAGAGAACGG | 1.04 ± 0.091
AAGAGAAGCC | 1.02 ± 0.078
AAGAGAGGGA | 0.981 ± 0.041

Sequence | switch fluorescence ratio
AAGAGAGGGG | 1.02 ± 0.029
AAGAGATATG | 1.02 ± 0.059
AAGAGATTTT | 0.986 ± 0.012
AAGAGGATG | 0.977 ± 0.023
AAGAGGCATG | 0.971 ± 0.07
AAGAGGCCGG | 0.986 ± 0.031
AAGAGGGGTA | 0.999 ± 0.018
AAGAGGGTGG | 0.997 ± 0.02
AAGAGGGTTT | 1.01 ± 0.05
AAGAGGTCAG | 1.033 ± 0.0016
AAGAGTAGGA | 0.989 ± 0.0099
AAGAGTATAA | 0.985 ± 0.04
AAGAGTCTTT | 1.01 ± 0.017
AAGAGTGGGA | 1.03 ± 0.011
AAGAGTGGTG | 0.988 ± 0.015
AAGATCACTG | 1.06 ± 0.068
AAGATCGGGG | 0.972 ± 0.049
AAGATGAGGT | 1.01 ± 0.021
AAGATGCTTC | 1 ± 0.011
AAGATGGGGT | 0.991 ± 0.017
AAGATGTAGT | 0.994 ± 0.017
AAGATGTATT | 0.9561 ± 0.0015
AAGATTAGGT | 1 ± 0.059

Sequence | switch fluorescence ratio
AAGATTTCGT | 1 ± 0.044
AAGCACCGGG | 1.08 ± 0.085
AAGCACTAGG | 1.1916 ± 0.0011
AAGCAGGGGG | 0.995 ± 0.018
AAGCAGGTGG | 1.052 ± 0.0096
AAGCATCTAC | 2.08 ± 0.32
AAGCATTTGT | 0.9976 ± 0.0089
AAGCCAAATG | 0.994 ± 0.029
AAGCCAAGAG | 1.05 ± 0.027
AAGCCAGCTC | 1.02 ± 0.037
AAGCCGAGGG | 1.017 ± 0.0022
AAGCCGATCT | 0.974 ± 0.046
AAGCCGGGAT | 1.02 ± 0.016
AAGCCTGAGG | 1.015 ± 0.0084
AAGCCTTTTT | 1.01 ± 0.019
AAGCGAGCCG | 1.02 ± 0.091
AAGCGAGGTT | 0.991 ± 0.021
AAGCGCATTT | 1.05 ± 0.029
AAGCGGGTCG | 1.03 ± 0.049
AAGCGGTTCG | 0.98939 ± 0.0009
AAGCGGTTTT | 1 ± 0.019
AAGCGTGAGG | 1.04 ± 0.047
AAGCGTGTGG | 1 ± 0.036

Sequence | switch fluorescence ratio
AAGCTAATGT | 1.061 ± 0.0089
AAGCTACTGG | 1.0513 ± 0.00024
AAGCTCTTGA | 1 ± 0.04
AAGCTGGTGT | 1.014 ± 0.0075
AAGCTGTGCA | 0.99 ± 0.038
AAGCTGTTAT | 1.16 ± 0.29
AAGCTTCTGT | 1.023 ± 0.0057
AAGCTTTCGG | 1.03 ± 0.016
AAGGAAAGAT | 0.975 ± 0.04
AAGGAAATGG | 1.01 ± 0.035
AAGGACAAGA | 1.02 ± 0.00092
AAGGACATTA | 1.042 ± 0.0014
AAGGACCGGC | 0.991 ± 0.057
AAGGAGAGCT | 1.01 ± 0.054
AAGGAGAGGG | 1 ± 0.096
AAGGAGGATG | 0.995 ± 0.042
AAGGAGGCAC | 0.985 ± 0.021
AAGGAGGCAG | 1.03 ± 0.045
AAGGAGGGCA | 0.984 ± 0.016
AAGGATAATG | 0.976 ± 0.019
AAGGATATCT | 0.988 ± 0.022
AAGGATGTGG | 0.977 ± 0.021
AAGGATTGCG | 0.96 ± 0.047

Sequence | switch fluorescence ratio
AAGGATTTTT | 0.998 ± 0.03
AAGGCAGGGG | 1.05 ± 0.044
AAGGCAGGTT | 1.021 ± 0.0068
AAGGCCAGCG | 0.953 ± 0.051
AAGGCCAGGT | 1.17 ± 0.083
AAGGCCGCGG | 0.997 ± 0.05
AAGGCCGGAA | 1.04 ± 0.025
AAGGCGAGCT | 0.992 ± 0.01
AAGGCGAGTA | 0.997 ± 0.017
AAGGCGGGTT | 0.9894 ± 0.0085
AAGGCGTAC | 1.24 ± 0.17
AAGGCGTAGT | 0.979 ± 0.055
AAGGCTTAGT | 1.01 ± 0.052
AAGGGAAAGG | 1 ± 0.013
AAGGGAACGG | 0.971 ± 0.022
AAGGGAACTC | 1.03 ± 0.02
AAGGGAATAA | 1.11 ± 0.11
AAGGGACACA | 1.05 ± 0.011
AAGGGAGATT | 0.968 ± 0.011
AAGGGAGGAC | 0.9939 ± 0.002
AAGGGAGGGC | 0.96 ± 0.032
AAGGGATATG | 1 ± 0.013
AAGGGATGAT | 0.978 ± 0.019

Sequence | switch fluorescence ratio
AAGGGATTGA | 1.01 ± 0.011
AAGGGCATTT | 1.04 ± 0.028
AAGGGCCCAA | 1.004 ± 0.0074
AAGGGCCCTT | 1.01 ± 0.018
AAGGGCGAGC | 0.985 ± 0.1
AAGGGCGCCC | 1.14 ± 0.18
AAGGGCGGGT | 1.03 ± 0.014
AAGGGCTCGG | 1.07 ± 0.14
AAGGGCTGCA | 1.032 ± 0.0052
AAGGGCTTCC | 1.98 ± 0.038
AAGGGCTTTA | 1.01 ± 0.023
AAGGGGCCTG | 0.977 ± 0.018
AAGGGGCGTG | 0.997 ± 0.03
AAGGGGCTCT | 0.993 ± 0.033
AAGGGGCTTC | 0.985 ± 0.033
AAGGGGGAGG | 0.982 ± 0.034
AAGGGGGAGT | 0.996 ± 0.028
AAGGGGGATG | 1.01 ± 0.035
AAGGGGGGAG | 0.986 ± 0.026
